Data on four molecules can be found in publication doi:10.1101/2025.04.14.648677 (bioRxiv, 2025).

Data set [1] concerns the target IRE1β_LD, wildtype (analytical SEC) (not stated (human numbering used; mouse IRE1β_LD used in cells)). The experiment in a line: SEC. For orientation: SEC sorts molecules by how far they enter the pores of the column.
The data set “SEC-SAXS” concerns the molecule itself. The experiment in a line: SEC-SAXS.
The data set “AUC” concerns the molecule itself. The experiment in a line: AUC.
Data set [2] addresses T1, AGR2 H117Y (not stated (human or mouse AGR2 made)), O95994.
T1 chain: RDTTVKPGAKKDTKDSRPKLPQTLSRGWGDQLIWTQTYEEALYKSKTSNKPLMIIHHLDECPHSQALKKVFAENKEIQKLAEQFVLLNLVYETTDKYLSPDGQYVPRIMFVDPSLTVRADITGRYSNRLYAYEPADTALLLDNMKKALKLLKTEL
The experiment in a line: SEC. Conditions: remark: other sources report otherwise.

For orientation: stoichiometry N means the number of molecules, sites or subunits per partner or assembly. In data set [1], “IRE1β_LD, wildtype (analytical SEC) (domain or fragment)” had a stoichiometry N of 2.

B1: Human AGR2^41-171 (domain or fragment, UniProt O95994 41-171, looked up)
chain: PQTLSRGWGDQLIWTQTYEEALYKSKTSNKPLMIIHHLDECPHSQALKKVFAENKEIQKLAEQFVLLNLVYETTDKHLSPDGQYVPRIMFVDPSLTVRADITGRYSNRLYAYEPADTALLLDNMKKALKLL
For B1, the “stoichiometry N” value in the data set “SEC-SAXS” was determined as 2.

B2: mouse AGR2 (residues 21-175), AUC (natural protein, UniProt O88312 21-175, looked up)
chain: KDTTVKSGAKKDPKDSRPKLPQTLSRGWGDQLIWTQTYEEALYRSKTSNRPLMVIHHLDECPHSQALKKVFAEHKEIQKLAEQFVLLNLVYETTDKHLSPDGQYVPRIVFVDPSLTVRADITGRYSNRLYAYEPSDTALLYDNMKKALKLLKTEL
B2: in the data set “AUC”, the binding result is given as “binds”.

B3: AGR2 H117Y, O95994 21-175 (natural protein)
chain: RDTTVKPGAKKDTKDSRPKLPQTLSRGWGDQLIWTQTYEEALYKSKTSNKPLMIIHHLDECPHSQALKKVFAENKEIQKLAEQFVLLNLVYETTDKYLSPDGQYVPRIMFVDPSLTVRADITGRYSNRLYAYEPADTALLLDNMKKALKLLKTEL
In data set [2], B3 registered a stoichiometry N of 2.
